Columns and labels:
[1] = test system: E18-19 rat hippocampal neurons; test: Counts of NSE-, GAD-, calbindin- and acetylcholinesterase-positive cells in hippocampal cultures; format: cell-based
Method: (§1) Hippocampi were dissected from E18-19 rat embryos of Sprague-Dawley rats, and collected in F10 medium. The tissues were minced, rinsed twice with F10 medium (Gibco) and trypsinized with 0.25% trypsin (Gibco) for 20 minutes at 37° C. Trypsin was inactivated by the addition of a serum-containing medium composed of minimal essential medium (MEM) supplemented with fetal calf serum (FCS, 10%), glutamine (2 mM), penicillin (25 U/ml) and streptomycin (25 ug/ml). Dissociated cells obtained by gentle trituration were collected and centrifuged at low speed (500 rpm) for 30 seconds. The centrifugation was repeated twice, and the cell pellets were then resuspended in serum-containing medium. The cells were then plated onto 6 mm wells or 35 mm dishes that were coated with polyornithine (10 ug/ml) and laminin (10 ug/ml). In most of the experiments, the cells were plated at a low density of approximately 71,000 cells/cm^2. Five to six hours following the plating of cells, medium was changed to a serum-free medium containing 1% N3 and penicillin-streptomycin (25 units/ml and 25 ug/ml, respectively), at which time CNTF was added. Medium was changed every three to four days, with re-addition of the factor.
Cells were fixed with 4% paraformaldehyde for 30 minutes at room temperature, washed with PBS. For GAD staining, cells were permeabilized by sequential rinsing with 50%, 70% and 50% ethanol. The cultures were blocked by sequential rinsing with PBS containing 5% normal rabbit serum for one hour, and incubated with sheep anti-GAD antibody 1440 at a 1:6000 dilution) overnight at 4° C. Following three rinses with PBS, cells were then incubated with biotinylated rabbit anti-sheep antibody at a 1:400 dilution for at least 90 minutes at room temperature. For GABA staining, cells were permeabiized with Triton X-100 (0.25%) in Tris-HCl (0.1M, pH 7.3), and blocked with 10% normal goat serum for 90 minutes, prior to incubation with rabbit anti-GABA antibody (1:5000) ovenight at 4° C. Following three rinses with PBS, cells were then incubated with biotinylated goat anti-rabbit antibody at a 1:200 dilution for at least 90 minutes at room temperature. GAG- or GABA imminoreactive cells were visualized by using the Vectastain ABC kit (Vector Labs).
Following fixing with 4% paraformaldehyde, cells were blocked with 10% normal goat serum (NGS) in PBS containing 0.1% Triton X-100. The cells were then incubated with the primary antibody (rabbit anti-NSE, 1:5000) overnight at 4° C. The cells were then incubated with the secondary antibody (goat anti-rabit, 1:200 dilution) for at least 90 minutes at room temperature. NSE-immunopositive cells were visualized using the Vectastain ABC kit (Vector Labs).
Cells were rinsed twice with PBS, and fixed with 4% paraformaldehyde for 30 minutes at room temperature. […]

[2] = test system: E18-19 rat hippocampal neurons; test: Neurofilament protein in hippocampal cultures; format: cell-based
Method: as §1
Neurofilament protein was quantitated according to the method of Doherty et al. (1984, J. Neurochem. 42:1115-1122), as is described in Section 14.1.3.
The CNTF used in all assays was recombinant rat CNTF, expressed and purified as described in Example Section 12 supra.

[3] = test system: metrizamide gradient purified ventral spinal cord motorneurons; test: CAT activity in metrizamide gradient-purified motorneurons; format: cell-based, rat; conditions: CNTF 10 ng/ml; purified motorneuron cultures
Method: Cultures were harvested by lysing the cells in a 20 mM Tris-HCl (pH 8.6) solution containing 0.1% Triton X-100. Two microliters of the cell lysate was removed and assayed for CAT activity according to the micro-Fonnum procedure (Fonnum, 1975, J. Neurochem. 24:407-409). The final substrate composition consisted of 0.2 mM [1-^14C] Acetyl-CoA (NEN, 54.4 mCi/mmol), 300 mM NaCl, 8 mM choline bromide, 20 mM EDTA, and 0.1 mM neostigmine in 50 mM NaH2PO4 (pH 7.4) buffer. At these enzyme and substrate concentrations, the enzymatic reaction was linear for 90-120 minutes. The specificity of the induction for CAT was tested by the addition of a specific inhibitor of CAT activity, N-hydroxyethyl-4-(1-napthylvinyl) pyridium (HNP), during the assay (White and Cavallito, 1970, J. Neurochem. 17:1579-1589).
The fractionation procedure (Dohrman et al., 1986, Dev. Biol. 118:209-221) was a modification of the method described by Schnaar and Schaffner (1981, J. Neurosci. 1:204-207). Metrizamide was dissolved in F12:MEM(1:1) medium, and a step gradient consisting of 3 ml 17% metrizamide, 3 ml 12% metrizamide and 3 ml 8% metrizamide was prepared. The following steps were all carried out at 4° C. The ventral horn cell suspension (2.5 ml) obtained as described previously was layered over the step gradient, the tube was centrifuged at 2500×g for 20 minutes using a swing-out rotor. […]

[4] = recombinant rat CNTF 10 ng/ml, 8 days

B1: CNTF: ciliary neurotrophic factor; recombinant rat CNTF in Sections 10, 15, 17, purified rat sciatic nerve CNTF in Section 11; see endpoint conditions (protein, UniProt P20294 1-200, looked up)
Ciliary neurotrophic factor: MAFAEQTPLTLHRRDLCSRSIWLARKIRSDLTALMESYVKHQGLNKNINLDSVDGVPVASTDRWSEMTEAERLQENLQAYRTFQGMLTKLLEDQRVHFTPTEGDFHQAIHTLMLQVSAFAYQLEELMVLLEQKIPENEADGMPATVGDGGLFEKKLWGLKVLQELSQWTVRSIHDLRVISSHQMGISALESHYGAKDKQM
**Q.** What does the source list for B1?
**A.** increase in number of GAD-positive neurons [1, 4]: 2.3 fold; increase in number of NSE-positive neurons [1, 4]: 2.2 fold; increase in calbindin-immunopositive cells ([1]; recombinant rat CNTF 10 ng/ml, low-density cultures): 3 fold; increase in number of acetylcholinesterase positive cells versus controls ([1]; recombinant rat CNTF, after 8 days in culture): approximately 17 fold; effect on neurofilament protein, CNTF added on the third day and cells treated for 8 days ([2]; CNTF 10 ng/ml): much reduced; CNTF-induced increase in neurofilament protein, addition delayed by 3 days ([2]; CNTF 10 ng/ml, measured on the eighth day): similarly diminished; maximal increase in neurofilament protein ([2]; recombinant rat CNTF 10 ng/ml, day 8): approximately 5 fold; concentration at which neurofilament protein reaches a plateau ([2]; recombinant rat CNTF, 8 days): 0.1 ng/mL; increase in CAT activity versus untreated cultures [3]: 10 fold
